{"source": "paper PMC4362373", "target": "recombinant human IL-1RI Fc chimera (human) (UniProt P14778)", "sequence (P14778 18-336, change not shown)": "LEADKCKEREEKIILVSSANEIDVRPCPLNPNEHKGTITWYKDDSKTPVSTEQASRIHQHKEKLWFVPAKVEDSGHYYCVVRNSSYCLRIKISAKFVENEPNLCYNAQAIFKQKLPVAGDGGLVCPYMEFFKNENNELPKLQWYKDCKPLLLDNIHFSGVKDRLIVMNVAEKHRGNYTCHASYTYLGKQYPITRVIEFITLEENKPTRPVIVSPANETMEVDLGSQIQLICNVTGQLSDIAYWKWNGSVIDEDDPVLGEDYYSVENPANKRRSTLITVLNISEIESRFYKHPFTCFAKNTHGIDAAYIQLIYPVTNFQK", "assay": "ELISA"}
{"substance": "hIL-1b(D145K) (ligand)", "values": [{"measurement": "fold reduction of affinity against wild-type IL-1β", "result": 3500, "unit": "fold"}]}
